Data on 37 molecules can be found in US20230242902A1, “A HIGHLY ERROR-PRONE […] R[…] FOR TARGETED CONTINUOUS EVOLUTION IN VIVO” (The Regents of the University of California, priority 2017, published 2023).

Sequences and labels used below:
B1: E298R: TP-DNAP1 variant (protein)
chain: MDYKDKALNDLRNVYADFDSLPLDFRQILIKDRATLLQKEDVEKKILERQEDAKKYAEYLKQSEIPERISLPNIKRHKGVSISFEETSEDMVLEPRPFIFDGLNIRCFRRETIFSLKNKILNMVKESSSFKNVSRQSVSFMYFKIFNKGKVIASTKSVNIYEDKIDERLEDLCNNFDDVLKKIIDVTYGYESLFVSETYSYVIFYAKSIYFPQPRCVNNWGNNIPNILTFDSFKLFTANKNNVSCIKQCSRFLWQKDFNTLEEMIEYKNGNICIVTPQLHINDVRDIKSFNDIRLYSRSPIKTFSVIDNTITYLFYFKEHLGVIFNITKSRHDRRVTKFSPLSKFSDVKNITVCFDIESYFDPEKESNQVNIPFICCASIIYNKVIGNIVDFEGRDCVAQMIEYVVDICGELNISSVELIAHNGGGYDFHYILSSMYNPAAIKNILIRNNSFISFNFAHDGVKFSVKDSYSFLLCSLANASKAFLNEETFKKTDFPHHDLKTADDLYKVYKEWSSVNTEINHVVEKEKLLITSEHIVNFTKNDKSKTLIEWSKDYCRNDVLVLSKVWLEFKNAVEDIFNCELVDQTMTLAGLSYKLFQANMPFDVELRHPNKEDYFNMREALIGGRCISVNGIYKDVLCLDVKSLYPASMAFYDQPYGSFKRVSSRPKDELGIYYVRVTPNRNNKSNFFPIRSHNKITYNNFEESTYIAWYTNVDIDIGLSEGHNIEYIPFDSYGNIGYSWSKKGKIFEKYIKDVLYKLKIKYEKQNNKVKRNVIKIIMNSLWGKFAQKWVNFEYFIKSEDDIDFESEEAYKIWDTDFMLIKKIKESTYSSKPIQNGVFTLSWARYHMKSIWDAGAKEGAECIYSDTDSIFVHKEHFKKNAKFMLNGLKVPIIGSEVGQLELECEFDKLLCAGKKQYMGFYTYFQDGKPCIKEKKRFKGIPSNYIIPELYAHLLSGADKEAKIQFLKFRREWGSVKGYIENKTVKAT
B2: T698A: TP-DNAP1 variant (protein)
chain: B1 chain with R298E, T698A
B3: H694I: TP-DNAP1 variant (protein)
chain: B1 chain with R298E, H694I
B4: E704M: TP-DNAP1 variant (protein)
chain: B1 chain with R298E, E704M
B5: R692V: TP-DNAP1 variant (protein)
chain: B1 chain with R298E, R692V
B6: E298H: TP-DNAP1 variant (protein)
chain: B1 chain with R298H
B7: S705L: TP-DNAP1 variant (protein)
chain: B1 chain with R298E, S705L
B8: K696M: TP-DNAP1 variant (protein)
chain: B1 chain with R298E, K696M
B9: E704N: TP-DNAP1 variant (protein)
chain: B1 chain with R298E, E704N
B10: E703W: TP-DNAP1 variant (protein)
chain: B1 chain with R298E, E703W
B11: K696T: TP-DNAP1 variant (protein)
chain: B1 chain with R298E, K696T
B12: T698L: TP-DNAP1 variant (protein)
chain: B1 chain with R298E, T698L
B13: E704D: TP-DNAP1 variant (protein)
chain: B1 chain with R298E, E704D
B14: N695F: TP-DNAP1 variant (protein)
chain: B1 chain with R298E, N695F
B15: R692W: TP-DNAP1 variant (protein)
chain: B1 chain with R298E, R692W
B16: N695Q: TP-DNAP1 variant (protein)
chain: B1 chain with R298E, N695Q
B17: E704I: TP-DNAP1 variant (protein)
chain: B1 chain with R298E, E704I
B18: H694T: TP-DNAP1 variant (protein)
chain: B1 chain with R298E, H694T
B19: K696C: TP-DNAP1 variant (protein)
chain: B1 chain with R298E, K696C
B20: E703R: TP-DNAP1 variant (protein)
chain: B1 chain with R298E, E703R
B21: E298G, S305F: TP-DNAP1 variant (protein)
chain: B1 chain with R298G, S305F
B22: S693Q: TP-DNAP1 variant (protein)
chain: B1 chain with R298E, S693Q
B23: T706R: TP-DNAP1 variant (protein)
chain: B1 chain with R298E, T706R
B24: E704G: TP-DNAP1 variant (protein)
chain: B1 chain with R298E, E704G
B25: N695E: TP-DNAP1 variant (protein)
chain: B1 chain with R298E, N695E
B26: E298G: TP-DNAP1 variant (protein)
chain: B1 chain with R298G
B27: K696S, E704V: TP-DNAP1 variant (protein)
chain: B1 chain with R298E, K696S, E704V
B28: T698M: TP-DNAP1 variant (protein)
chain: B1 chain with R298E, T698M
B29: N695S: TP-DNAP1 variant (protein)
chain: B1 chain with R298E, N695S
B30: S705F: TP-DNAP1 variant (protein)
chain: B1 chain with R298E, S705F
B31: K696G: TP-DNAP1 variant (protein)
chain: B1 chain with R298E, K696G
B32: N695H: TP-DNAP1 variant (protein)
chain: B1 chain with R298E, N695H
B33: E703H: TP-DNAP1 variant (protein)
chain: B1 chain with R298E, E703H
B34: E704K: TP-DNAP1 variant (protein)
chain: B1 chain with R298E, E704K
B35: K696Y: TP-DNAP1 variant (protein)
chain: B1 chain with R298E, K696Y
B36: S693R: TP-DNAP1 variant (protein)
chain: B1 chain with R298E, S693R
B37: S705R: TP-DNAP1 variant (protein)
chain: B1 chain with R298E, S705R

Substitutions are numbered along the chain they refer to. Numbers in names are those of the source.

The assay concerns p1. Put plainly: p1 copy number by p1-encoded mKate2 fluorescence. It counts as cell-based, S. cerevisiae. The settings on record: OR-Y24, measured in triplicate. In outline: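 Yeast OR-Y24 strains carrying TP-DNAP1 variants were grown to saturation from a 1:10,000 dilution, and p1-encoded mKate2 fluorescence was measured by flow cytometry (ex/em 561/620 nm). Values were converted to copy number via a linear calibration against qPCR of p1-encoded LEU2 versus genomic LEU3, or by plate-reader OD600-normalized fluorescence relative to w.t. TP-DNAP1.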
For B1, the “Mean fold-increase over w.t. (p1 copy number)” value (shortened to “Mean fold-increase”) is listed as 2.6 fold.
In the case of B2 it was 2.02 fold; in that of B3, 1.78 fold; in that of B4, 2.02 fold.
In the case of B5 it was 2.29 fold; in that of B6, 2.57 fold.
To B7 belongs 1.98 fold.
On to B8, for which the “Mean fold-increase” value stood at 1.71 fold.
On to B9, for which the “Mean fold-increase” value is reported as 1.85 fold.
In the case of B10 it was 1.72 fold.
In the case of B11 it was 2.12 fold.
In the case of B12 it was 2 fold.
As to B13, the “Mean fold-increase” value came out at 1.89 fold.
In the case of B14 it was 1.44 fold; in that of B15, 1.97 fold.
To B16 belongs 1.68 fold.
To B17 belongs 1.35 fold.
In the case of B18, the “Mean fold-increase” value came to 1.92 fold.
In the case of B19 it was 1.87 fold; in that of B20, 1.84 fold.
In the case of B21 it was 2.06 fold; in that of B22, 2.22 fold; in that of B23, 2 fold.
To B24 belongs 1.75 fold; to B25, 2.34 fold.
In the case of B26, the “Mean fold-increase” value stood at 2.64 fold.
To B27 belongs 1.86 fold.
In the case of B28 it was 1.75 fold; in that of B29, 1.82 fold.
To B30 belongs 1.76 fold.
For the molecule B31, the “Mean fold-increase” value was determined as 2.11 fold.
To B32 belongs 1.76 fold; to B33, 1.53 fold; to B34, 1.8 fold.
With B35, the “Mean fold-increase” value came out at 1.49 fold.
For B36, the “Mean fold-increase” value was 2.09 fold.
To B37 belongs 1.84 fold.
